Data taken from patent publication US20230135471A1, “UBIQUITIN VARIANTS WITH IMPROVED AFFINITY FOR 53BP1” (Integrated DNA Technologies, Inc., priority 2021, published 2023).

These substances were tested against 53BP1 fragment (a.a. 1221-1718) fused to an adenylate cyclase fragment (two-hybrid) (UniProt Q12888) (assay: cell-based or functional assay).

Substance	Experiment 1 Average Enrichment [log2]	Experiment 1 Rep 1 Enrichment [log2]	Experiment 1 Rep 2 Enrichment [log2]	Experiment 2 Average Enrichment [log2]	Experiment 2 Rep 1 Enrichment [log2]	Experiment 2 Rep 2 Enrichment [log2]	Percent GFP Positive Rep 1 [%]	Percent GFP Positive Rep 2 [%]	Percent GFP Positive Rep 3 [%]
i53 + P38T two-hybrid fusion (designed binder)	0.11	0.95	-0.72	0.92	1.27	0.58			
i53 + S65E two-hybrid fusion (designed binder)	1.54	1.29	1.79	0.8	0.74	0.85			
i53 + S20C two-hybrid fusion (designed binder)	-0.08	-0.36	0.2	0.05	-0.1	0.21			
i53 + R42Y two-hybrid fusion (designed binder)	1.57	1.44	1.69	1.19	1.13	1.26			
i53 + T14D two-hybrid fusion (designed binder)	2.88	2.9	2.86	1.53	1.65	1.4			
i53 + T7C two-hybrid fusion (designed binder)	1.2	1.16	1.23	0.79	0.9	0.69			
i53 + P38C two-hybrid fusion (designed binder)	1.52	1.21	1.83	0.52	0.46	0.57			
i53 + P38W two-hybrid fusion (designed binder)	0.6	0.61	0.6	-0.59	-0.87	-0.32			
i53 + T12Y two-hybrid fusion (designed binder)	0.25	0.14	0.36	0.35	0.52	0.17			
i53 + R54F two-hybrid fusion (designed binder)	0.76	1.01	0.52	0.55	0.66	0.43			
i53 + H68M two-hybrid fusion (designed binder)	2.28	2.53	2.04	1.28	0.99	1.58	28.6	23.5	28.3
i53 + S49M two-hybrid fusion (designed binder)	0.84	1	0.69	0.77	0.57	0.98			
i53 + R42N two-hybrid fusion (designed binder)	1.12	1.18	1.05	1.01	1.34	0.68			
i53 + R74L two-hybrid fusion (designed binder)	1.11	1.35	0.88	0.85	0.95	0.76			
i53 + K33Q two-hybrid fusion (designed binder)	2.9	3.03	2.77	1.48	1.96	0.99			
i53 + N25M two-hybrid fusion (designed binder)	0.5	0.5	0.5	0.45	0.46	0.43			
i53 + K48M two-hybrid fusion (designed binder)	0.91	0.87	0.94	0.67	0.63	0.7			
i53 + S65A two-hybrid fusion (designed binder)	1.15	1.29	1.01	0.95	1.17	0.73			

Substance	Experiment 1 Average Enrichment [log2]	Experiment 1 Rep 1 Enrichment [log2]	Experiment 1 Rep 2 Enrichment [log2]	Experiment 2 Average Enrichment [log2]	Experiment 2 Rep 1 Enrichment [log2]	Experiment 2 Rep 2 Enrichment [log2]	Percent GFP Positive Rep 1 [%]	Percent GFP Positive Rep 2 [%]	Percent GFP Positive Rep 3 [%]
i53 + N25I two-hybrid fusion (designed binder)	0.83	0.85	0.81	0.4	0.41	0.39			
i53 + K33T two-hybrid fusion (designed binder)	1.77	1.9	1.63	1.41	1.48	1.34			
i53 + K33I two-hybrid fusion (designed binder)	2.03	1.91	2.14	0.91	1.32	0.5			
i53 + D39W two-hybrid fusion (designed binder)	0.99	0.9	1.09	0	0.86	-0.85			
i53 + N25F two-hybrid fusion (designed binder)	0.38	0.42	0.34	-0.04	0.12	-0.2			
i53 + I13P two-hybrid fusion (designed binder)	0.58	2.15	-0.99	-4.23	-3.84	-4.62			
i53 + K33E two-hybrid fusion (designed binder)	2.71	2.38	3.03	1.27	1.48	1.05			
i53 + P38H two-hybrid fusion (designed binder)	0.26	0.87	-0.35	0.58	0.33	0.83			
i53 + T7L two-hybrid fusion (designed binder)	0.61	0.62	0.61	-0.19	-0.07	-0.31			
i53 + E16Y two-hybrid fusion (designed binder)	0.35	0.23	0.47	-0.22	-0.32	-0.11			
i53 + S65N two-hybrid fusion (designed binder)	0.38	0.04	0.71	0.34	0.71	-0.04			
i53 + E18C two-hybrid fusion (designed binder)	0.23	-0.06	0.52	-0.34	-0.82	0.14			
i53 + Q31Y two-hybrid fusion (designed binder)	0.32	0.31	0.34	-0.05	-0.26	0.16			
i53 + Q31H two-hybrid fusion (designed binder)	0.19	0.66	-0.29	0.11	0.13	0.09			
i53 + R74V two-hybrid fusion (designed binder)	1.51	1.58	1.44	0.95	1.19	0.7			
i53 + K29Q two-hybrid fusion (designed binder)	0.05	-0.21	0.31	-0.04	-0.26	0.17			
i53 + R74T two-hybrid fusion (designed binder)	0.33	0.4	0.26	0.31	0.25	0.38			
i53 + S57Q two-hybrid fusion (designed binder)	0.07	0.07	0.07	0.14	0.27	0.01			
